{
  "source": "patent US11287428B2",
  "about": "“PD1 and PDL-1 expression during progression from myelodysplastic syndrome to acute myelogenous leukemia” (H. Lee Moffitt Cancer Center and Research Institute, Inc., priority 2016, dated 2022)",
  "type_in_all_cases": "cell-based, human",
  "key": {"CD33+CD14+ cells": {"system": "CD33+CD14+ cells", "assay": "Culture of BM cells with S100A9, PD-L1 surface expression by flow cytometry", "details": "BM cells cultured with S100A9, 48 h", "experimental": "FIG. 5. Culture of BM cells with rhS100A9 can induce the expression of PDL1 on CD33+CD14+.\n(§1) FIGS. 20A-20C. […] One and half million of BM cells from Healthy donor were placed per well in 24-well plate, cultured with IgG or S100A9. After 48 h, cells were collected and stained with antibodies: anti-CD33-PE-Cy7, anti-CD34-Percp-Cy5.5, anti-CD14-BV510, anti-CD71-BV421, anti-CD38-BV711, anti-CD235a-BUV395, anti-PD-1-FITC and anti-PD-L1-APC. Near infrared live/dead dye was used for distinction of live or dead cells. Flow acquisitions were performed using LSR II cytometer and analysis was done using live cells with flowjo. (A) PD-L1 expression on CD14+/CD33+: cells positive for PD-L1 surface expression were calculated based on FMO gate setting. (B) and (C) PD-1 expression on progenitors by S100A9 or PT plasma, respectively. Positive PD-1 surface expression on CD14−/CD33−/CD71−/CD34+/CD38+ progenitors was determined using FMO gates. HD—healthy donor (n=6), MDS—myelodysplastic syndrome (n=10). Significance was determined using two-tailed unpaired t test with Welch's correction: *P<0.05, **P<0.01, ***P<0.001, error bars indicate mean±SEM."}, "C-Myc": {"system": "C-Myc", "assay": "C-Myc and p-stat3 induction in HD BM cells cultured with S100A9", "details": "HD BM cultured with S100A9 for 48 h", "experimental": "FIG. 23. […] Right panel, HD BM cells 48 h treatment."}, "CD71 cells": {"system": "CD71 cells", "assay": "Active caspase 3 staining of BM cells cultured with S100A9", "details": "BM cells cultured with S100A9, 48 h", "experimental": "FIG. 21. Increased the expression of PD-1 and PD-L1 induced cell death. One and half million of BM cells from Healthy donor were placed per well in 24-well plate, cultured with IgG or S100A9. After 48 h, cells were collected and stained for cell surface with antibodies: anti-CD33-PE-Cy7, anti-CD34-Percp-Cy5.5, anti-CD14-BV510, anti-CD71-BV421, anti-CD38-BV711, and anti-CD235a-BUV395, then cells were fixed/permeabilized and stained with anti-active caspase 3-PE according to manufacturer's protocol (BD Biosciences). Near infrared live/dead dye was used for distinction of live or dead cells. Flow acquisitions were performed using LSR II cytometer and analysis was done using live cells with flowjo. (A) PD-L1 expression on CD14+/CD33+: cells positive for PD-L1 surface expression were calculated based on FMO gate setting. (B) and (C). PD-1 expression on progenitors by S100A9 or PT plasma, respectively: Positive PD-1 surface expression on CD14−/CD33−/CD71−/CD34+/CD38+ progenitors was determined using FMO gates. HD—healthy donor (n=6), MDS—myelodysplastic syndrome (n=10). Significance was determined using two-tailed unpaired t test with Welch's correction: *P<0.05, **P<0.01, ***P<0.001, error bars indicate mean±SEM."}, "[1]": {"system": "CD33+, CD34+, and CD71+ cells", "assay": "Culture of BM cells with S100A9, PD-1 surface expression by flow cytometry", "details": "for PD-1 expression on CD34+ cells / PD-1 expression on CD71+ cells: BM cells cultured with S100A9, 48 h", "experimental": "FIGS. 6A and 6B. Culture of BM cells with rhS100A9 can induce the expression of PD1 on CD33+.\nFIG. 7. Culture of BM cells with rhS100A9 can induce the expression of PD1 on CD34+.\nFIG. 8. Culture of BM cells with rhS100A9 can induce the expression of PD1 on CD71+.\nas §1"}, "[2]": {"details": "listed as recombinant human S100A9"}},
  "data": [
    {"molecule": "S100A9: recombinant human S100A9 protein used to treat BM cells (protein, UniProt P06702 1-114, looked up) Protein S100-A9: MTCKMSQLERNIETIINTFHQYSVKLGHPDTLNQGEFKELVRKDLQNFLKKENKNEKVIEHIMEDLDTNADKQLSFEEFIMLMARLTWASHEKMHEGDEGPGHHHKPGLGEGTP", "values": [
      {"measurement": "PD-L1 expression on CD33+CD14+ cells", "setting": "CD33+CD14+ cells", "result": "directly induced the expression of PD-L1"},
      {"measurement": "PD-L1 expression on CD33+CD14+ cells", "setting": "CD33+CD14+ cells; [2]", "result": "induces PDL1 expression"},
      {"measurement": "C-Myc expression", "setting": "C-Myc", "result": "induced C-Myc expression"},
      {"measurement": "p-stat3", "setting": "C-Myc", "result": "induced p-stat3"},
      {"measurement": "active caspase 3 in CD71 cells", "setting": "CD71 cells", "result": "increase active caspase 3"},
      {"measurement": "PD-1 expression on CD34+ cells", "setting": "[1]", "result": "directly induced"},
      {"measurement": "PD-1 expression on CD71+ cells", "setting": "[1]", "result": "directly induced"},
      {"measurement": "PD-1 expression on CD34+ cells", "setting": "[1]; [2]", "result": "induces PD1"},
      {"measurement": "PD-1 expression on CD71+ cells", "setting": "[1]; [2]", "result": "induces PD1"},
      {"measurement": "PD-1 expression on CD33+ cells", "setting": "[1]; BM cells cultured with rhS100A9", "result": "induces PD1"}
    ]}
  ]
}
